The subject of data set [1] is HeLa Kyoto. The data set can be described thus: solubility in G1/S (NP-40 vs SDS abundance) (log2 ratio); higher = more soluble. Conditions: cell cycle stage: G1/S.
The subject of data set [2] is HeLa Kyoto. The data set can be described thus: melting temperature (median over replicates), in situ; higher = more thermally stable.
Data set [3] concerns HeLa Kyoto. The data set can be described thus: thermal stability score vs G1/S (z-score of summed log2 fold changes over temperatures); higher = more thermally stable than in G1/S.
Data set [4] relates to HeLa Kyoto. The data set is described as follows: solubility change mitosis vs G1/S (difference of NP-40 vs SDS log2 ratios) (log2 ratio difference); higher = more soluble in mitosis.
Setting [5] is: cell cycle stage: early G1 (4.5 h after nocodazole release).
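For melting temperature (median over replicates), in situ in this document: HeLa Kyoto cells synchronized by double thymidine or nocodazole block, proteins quantified by TMT10plex mass spectrometry, three independent biological replicates.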
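For solubility change mitosis vs G1/S (difference of NP-40 vs SDS log2 ratios) in this document: synchronized HeLa Kyoto cells (double thymidine block for G1/S, nocodazole release for mitosis), protein amounts in NP-40 versus SDS lysates quantified by mass spectrometry, three biological replicates.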
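For solubility in G1/S (NP-40 vs SDS abundance) in this document: HeLa Kyoto cells arrested at G1/S by double thymidine block, proteins quantified by TMT10plex mass spectrometry in mild NP-40 versus SDS extracts, three biological replicates.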
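For thermal stability score vs G1/S (z-score of summed log2 fold changes over temperatures) in this document: synchronized HeLa Kyoto cells, proteins quantified by TMT10plex mass spectrometry, three biological replicates, mitosis taken 0.5 h after nocodazole release, G1/S directly after double thymidine block.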

Turning to “MDPSDFPSPFDPLTLPEKPLAGDLPVDMEFGEDLLESQTAPTRGWAPPGPSPSSGALDLLDTPAGLEKDPGVLDGATELLGLGGLLYKAPSPPEVDHGPEGTLAWDAGDQTLEPGPGGQTPEVVPPDPGAGANSCSPEGLLEPLAPDSPITLQSPHIEEEETTSIATARRGSPGQEEELPQGQPQSPNAPPSPSVGETLGDGINSSQTKPGGSSPPAHPSLPGDGLTAKASEKPPERKRSERVRRAEPPKPEVVDSTESIPVSDEDSDAMVDDPNDEDFVPFRPRRSPRMSLRSSVSQRAGRSAVGTKMTCAHCRTPLQKGQTAYQRKGLPQLFCSSSCLTTFSKKPSGKKTCTFCKKEIWNTKDSVVAQTGSGGSFHEFCTSVCLSLYEAQQQRPIPQSGDPADATRCSICQKTGEVLHEVSNGSVVHRLCSDSCFSKFRANKGLKTNCCDQCGAYIYTKTGSPGPELLFHEGQQKRFCNTTCLGAYKKKNTRVYPCVWCKTLCKNFEMLSHVDRNGKTSLFCSLCCTTSYKVKQAGLTGPPRPCSFCRRSLSDPCYYNKVDRTVYQFCSPSCWTKFQRTSPEGGIHLSCHYCHSLFSGKPEVLDWQDQVFQFCCRDCCEDFKRLRGVVSQCEHCRQEKLLHEKLRFSGVEKSFCSEGCVLLYKQDFTKKLGLCCITCTYCSQTCQRGVTEQLDGSTWDFCSEDCKSKYLLWYCKAARCHACKRQGKLLETIHWRGQIRHFCNQQCLLRFYSQQNQPNLDTQSGPESLLNSQSPESKPQTPSQTKVENSNTVRTPEENGNLGKIPVKTRSAPTAPTPPPPPPPATPRKNKAAMCKPLMQNRGVSCKVEMKSKGSQTEEWKPQVIVLPIPVPIFVPVPMHLYCQKVPVPFSMPIPVPVPMFLPTTLESTDKIVETIEELKVKIPSNPLEADILAMAEMIAEAEELDKASSDLCDLVSNQSAEGLLEDCDLFGPARDDVLAMAVKMANVLDEPGQDLEADFPKNPLDINPSVDFLFDCGLVGPEDVSTEQDLPRTMRKGQKRLVLSESCSRDSMSSQPSCTGLNYSYGVNAWKCWVQSKYANGETSKGDELRFGPKPMRIKEDILACSAAELNYGLAQFVREITRPNGERYEPDSIYYLCLGIQQYLLENNRMVNIFTDLYYLTFVQELNKSLSTWQPTLLPNNTVFSRVEEEHLWECKQLGVYSPFVLLNTLMFFNTKFFGLQTAEEHMQLSFTNVVRQSRKCTTPRGTTKVVSIRYYAPVRQRKGRDTGPGKRKREDEAPILEQRENRMNPLRCPVKFYEFYLSKCPESLRTRNDVFYLQPERSCIAESPLWYSVIPMDRSMLESMLNRILAVREIYEELGRPGEEDLD [ZMYM3]”, in the data set with HeLa Kyoto [1], the “solubility in G1/S (log2)” value is -0.523. Besides, the melting temperature in the data set on HeLa Kyoto [2] (cell cycle stage: G1/S) worked out at 49.3 °C; in the data set with HeLa Kyoto [2] (cell cycle stage: mitosis), 50.6 °C. For the same sequence, the thermal stability score in the data set with HeLa Kyoto [3] (setting [5]) was 0.311; with HeLa Kyoto [3] (cell cycle stage: mitosis), 1.4. For the same sequence, the “solubility change mitosis (log2)” value in the data set with HeLa Kyoto [4] came to 0.169.
As for “MDRNPSPPPPGRDKEEEEEVAGGDCIGSTVYSKHWLFGVLSGLIQIVSPENTKSSSDDEEQLTELDEEMENEICRVWDMSMDEDVALFLQEFNAPDIFMGVLAKSKCPRLREICVGILGNMACFQEICVSISSDKNLGQVLLHCLYDSDPPTLLETSRLLLTCLSQAEVASVWVERIQEHPAIYDSICFIMSSSTNVDLLVKVGEVVDKLFDLDEKLMLEWVRNGAAQPLDQPQEESEEQPVFRLVPCILEAAKQVRSENPEWLDVYMHILQLLTTVDDGIQAIVHCPDTGKDIWNLLFDLVCHEFCQSDDPPIILQEQKTVLASVFSVLSAIYASQTEQEYLKIEKVDLPLIDSLIRVLQNMEQCQKKPENSAESNTEETKRTDLTQDDFHLKILKDILCEFLSNIFQALTKETVAQGVKEGQLSKQKCSSAFQNLLPFYSPVVEDFIKILREVDKALADDLEKNFPSLKVQT [SAAL1]”, the “solubility in G1/S (log2)” value in the data set on HeLa Kyoto [1] is 0.294. Moreover, the results for the melting temperature in the data set on HeLa Kyoto [2] (cell cycle stage: G1/S) and in the data set with HeLa Kyoto [2] (cell cycle stage: mitosis) were 52.3 °C and 50.6 °C, respectively. The figures for the thermal stability score in the data set on HeLa Kyoto [3] (setting [5]) and in the data set with HeLa Kyoto [3] (cell cycle stage: mitosis) were 0.137 and 0.212, respectively. Moreover, the “solubility change mitosis (log2)” value in the data set on HeLa Kyoto [4] turned out to be 0.00183.

For the origin of these results see the supplement of paper PMC5998384.
